One may read the Kd as the constant that tells how readily two partners part at equilibrium. The low end stands for higher affinity, the high end for lower affinity. For orientation: koff means the rate constant with which the complex falls apart. Read a low koff as slow dissociation.

T1: KNL1 (construct of the BLI titrations with ZWINT) (human, UniProt Q8NG31)
T1 chain: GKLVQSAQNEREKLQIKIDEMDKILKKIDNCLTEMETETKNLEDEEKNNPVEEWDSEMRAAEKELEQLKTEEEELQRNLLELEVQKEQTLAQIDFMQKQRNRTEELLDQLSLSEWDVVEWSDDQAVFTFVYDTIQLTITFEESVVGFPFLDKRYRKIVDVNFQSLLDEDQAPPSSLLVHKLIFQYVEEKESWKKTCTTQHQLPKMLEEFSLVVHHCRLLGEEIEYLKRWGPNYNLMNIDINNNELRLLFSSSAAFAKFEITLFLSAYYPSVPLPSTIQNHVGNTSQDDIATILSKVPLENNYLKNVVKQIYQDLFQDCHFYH

T2: Mis12C with KNL1_(2,026–2,342) bound (human, UniProt Q9H081 1-205; Q6P1K2 1-205; Q96IY1 1-281; Q9H410 1-356; Q8NG31 2026-2342)
T2 chain 1: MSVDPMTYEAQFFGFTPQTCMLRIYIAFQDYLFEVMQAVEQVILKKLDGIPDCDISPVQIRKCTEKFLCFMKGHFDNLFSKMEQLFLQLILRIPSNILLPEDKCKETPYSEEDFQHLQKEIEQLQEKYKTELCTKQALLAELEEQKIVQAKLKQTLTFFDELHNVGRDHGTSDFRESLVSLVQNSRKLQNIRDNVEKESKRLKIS
T2 chain 2: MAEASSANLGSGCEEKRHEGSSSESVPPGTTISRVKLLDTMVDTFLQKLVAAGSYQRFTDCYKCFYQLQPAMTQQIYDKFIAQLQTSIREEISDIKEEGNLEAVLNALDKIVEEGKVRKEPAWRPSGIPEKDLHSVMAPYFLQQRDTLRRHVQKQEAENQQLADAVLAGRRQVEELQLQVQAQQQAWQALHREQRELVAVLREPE
T2 chain 3: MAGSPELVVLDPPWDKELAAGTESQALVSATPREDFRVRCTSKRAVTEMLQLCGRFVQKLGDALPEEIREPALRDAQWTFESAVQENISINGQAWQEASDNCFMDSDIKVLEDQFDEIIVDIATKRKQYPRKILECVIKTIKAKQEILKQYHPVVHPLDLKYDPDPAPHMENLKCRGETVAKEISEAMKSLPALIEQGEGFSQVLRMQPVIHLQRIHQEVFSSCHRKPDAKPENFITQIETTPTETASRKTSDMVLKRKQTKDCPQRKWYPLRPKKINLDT
T2 chain 4: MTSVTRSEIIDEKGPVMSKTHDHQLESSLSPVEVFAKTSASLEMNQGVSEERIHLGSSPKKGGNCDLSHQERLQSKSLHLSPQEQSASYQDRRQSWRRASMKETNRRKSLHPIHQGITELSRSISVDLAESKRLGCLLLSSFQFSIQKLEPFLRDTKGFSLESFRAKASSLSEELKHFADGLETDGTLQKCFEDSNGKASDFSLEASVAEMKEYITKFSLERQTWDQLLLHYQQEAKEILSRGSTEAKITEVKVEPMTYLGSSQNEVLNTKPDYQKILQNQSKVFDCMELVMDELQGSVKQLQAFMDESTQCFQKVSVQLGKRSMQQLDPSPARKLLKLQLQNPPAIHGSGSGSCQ
T2 chain 5: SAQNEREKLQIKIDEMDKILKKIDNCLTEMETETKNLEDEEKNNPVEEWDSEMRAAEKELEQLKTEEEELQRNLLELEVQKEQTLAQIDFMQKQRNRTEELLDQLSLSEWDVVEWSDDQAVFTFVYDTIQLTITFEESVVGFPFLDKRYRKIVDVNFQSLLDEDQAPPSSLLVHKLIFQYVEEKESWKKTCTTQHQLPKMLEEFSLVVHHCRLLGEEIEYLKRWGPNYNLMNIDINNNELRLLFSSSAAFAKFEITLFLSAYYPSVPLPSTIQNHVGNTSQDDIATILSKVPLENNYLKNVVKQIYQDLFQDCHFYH

B1: Mis12 complex (Mis12C), full length: MIS12, PMF1, NSL1, DSN1 (complex)
chain 1: T2 chain 1
chain 2: T2 chain 2
chain 3: T2 chain 3
chain 4: T2 chain 4
B2: ZWINT (natural protein)
chain: MEAAETEAEAAALEVLAEVAGILEPVGLQEEAELPAKILVEFVVDSQKKDKLLCSQLQVADFLQNILAQEDTAKGLDPLASEDTSRQKAIAAKEQWKELKATYREHVEAIKIGLTKALTQMEEAQRKRTQLREAFEQLQAKKQMAMEKRRAVQNQWQLQQEKHLQHLAEVSAEVRERKTGTQQELDRVFQKLGNLKQQAEQERDKLQRYQTFLQLLYTLQGKLLFPEAEAEAENLPDDKPQQPTRPQEQSTGDTMGRDPGVSFKAVGLQPAGDVNLP
B3: KNL1 residues 2,026–2,342 (domain or fragment)
chain: T2 chain 5
B4: Ndc80 complex (Ndc80C): NDC80^HEC1, NUF2, SPC24, SPC25 (complex)
chain 1: MKRSSVSSGGAGRLSMQELRSQDVNKQGLYTPQTKEKPTFGKLSINKPTSERKVSLFGKRTSGHGSRNSQLGIFSSSEKIKDPRPLNDKAFIQQCIRQLCEFLTENGYAHNVSMKSLQAPSVKDFLKIFTFLYGFLCPSYELPDTKFEEEVPRIFKDLGYPFALSKSSMYTVGAPHTWPHIVAALVWLIDCIKIHTAMKESSPLFDDGQPWGEETEDGIMHNKLFLDYTIKCYESFMSGADSFDEMNAELQSKLKDLFNVDAFKLESLEAKNRALNEQIARLEQEREKEPNRLESLRKLKASLQGDVQKYQAYMSNLESHSAILDQKLNGLNEEIARVELECETIKQENTRLQNIIDNQKYSVADIERINHERNELQQTINKLTKDLEAEQQKLWNEELKYARGKEAIETQLAEYHKLARKLKLIPKGAENSKGYDFEIKFNPEAGANCLVKYRAQVYVPLKELLNETEEEINKALNKKMGLEDTLEQLNAMITESKRSVRTLKEEVQKLDDLYQQKIKEAEEEDEKCASELESLEKHKHLLESTVNQGLSEAMNELDAVQREYQLVVQTTTEERRKVGNNLQRLLEMVATHVGSVEKHLEEQIAKVDREYEECMSEDLSENIKEIRDKYEKKATLIKSSEE
chain 2: METLSFPRYNVAEIVIHIRNKILTGADGKNLTKNDLYPNPKPEVLHMIYMRALQIVYGIRLEHFYMMPVNSEVMYPHLMEGFLPFSNLVTHLDSFLPICRVNDFETADILCPKAKRTSRFLSGIINFIHFREACRETYMEFLWQYKSSADKMQQLNAAHQEALMKLERLDSVPVEEQEEFKQLSDGIQELQQSLNQDFHQKTIVLQEGNSQKKSNISEKTKRLNELKLSVVSLKEIQESLKTKIVDSPEKLKNYKEKMKDTVQKLKNARQEVVEKYEIYGDSVDCLPSCQLEVQLYQKKIQDLSDNREKLASILKESLNLEDQIESDESELKKLKTEENSFKRLMIVKKEKLATAQFKINKKHEDVKQYKRTVIEDCNKVQEKRGAVYERVTTINQEIQKIKLGIQQLKDAAEREKLKSQEIFLNLKTALEKYHDGIEKAAEDSYAKIDEKTAELKRKMFKMST
chain 3: MAAFRDIEEVSQGLLSLLGANRAEAQQRRLLGRHEQVVERLLETQDGAEKQLREILTMEKEVAQSLLNAKEQVHQGGVELQQLEAGLQEAGEEDTRLKASLLQLTRELEELKEIEADLERQEKEVDEDTTVTIPSAVYVAQLYHQVSKIEWDYECEPGMVKGIHHGPSVAQPIHLDSTQLSRKFISDYLWSLVDTEW
chain 4: MVEDELALFDKSINEFWNKFKSTDTSCQMAGLRDTYKDSIKAFAEKLSVKLKEEERMVEMFLEYQNQISRQNKLIQEKKDNLLKLIAEVKGKKQELEVLTANIQDLKEEYSRKKETISTANKANAERLKRLQKSADLYKDRLGLEIRKIYGEKLQFIFTNIDPKNPESPFMFSLHLNEARDYEVSDSAPHLEGLAEFQENVRKTNNFSAFLANVRKAFTATVYN

One experiment deals with SPC24^Y138A/SPC25 (human, UniProt Q8NBT2 1-197; Q9HBM1 1-224, Y138A). Kind of experiment: ITC. Background: ITC needs no label: the signal is the heat of the interaction.
The next experiment has as its target SPC24/SPC25^L154A-L176A (human, UniProt Q8NBT2 1-197; Q9HBM1 1-224, L154A | L176A). Kind of experiment: ITC.
For another experiment, the target named is KNL1^M2 (human, UniProt Q8NG31). Kind of experiment: ITC.
The next experiment deals with KNL1^M1 (human, UniProt Q8NG31). Put plainly: ITC.
The target of experiment [1] is T1, KNL1 (construct of the BLI titrations …). Kind of experiment: BLI; Kd1. For orientation: BLI is a label-free optical method that tracks binding on a fibre tip over time.
Experiment [2] has the same target. Put plainly: BLI; Kd2 (second site).
Another experiment concerns the target Mis12C^M1 (human, UniProt Q9H081 1-205; Q6P1K2 1-205; Q96IY1 1-281; Q9H410 1-356). Put plainly: ITC.
Another experiment concerns the target Mis12C^M2 (human, UniProt Q9H081 1-205; Q6P1K2 1-205; Q96IY1 1-281; Q9H410 1-356). Put plainly: ITC.
Experiment [3] concerns the target B1. Put plainly: BLI.
Experiment [4] concerns the target T2, Mis12C with KNL1_(2,026–2,342) bound. Kind of experiment: BLI.
For experiment [5] the target is unchanged. Kind of experiment: BLI.

Take B1: the Kd was 295 nM with SPC24^Y138A/SPC25, 1270 nM in the experiment with SPC24/SPC25^L154A-L176A, 109 nM with KNL1^M2 and 140 nM in the experiment with KNL1^M1.

Consider B2, for which the Kd in experiment [1] is 81.8 nM; in [2], 65.3 nM.

In the case of B3, the figures for the Kd in the experiment with Mis12C^M1 and with Mis12C^M2 were 45.2 nM and 24.8 nM, respectively. Also, in [3], the koff was 0.000451 s⁻¹.

In experiment [4], B4 gave a Kd of 1.15 nM. Moreover, the figures for the dissociation rate constant (koff) in [5] and in experiment [3] were 0.00024 s⁻¹ and 0.000582 s⁻¹, respectively.

(Values after publication PMC11189300 (2024).)
